Measured values from the DeepSol protein solubility set.

Experiment: soluble on expression in E. coli; label from the status in PepcDB or PDB records

Q: Which “soluble on expression in E. coli” value does the source give for “VDWTDAERSAIVGLWGKISVDEIGPQALARLLIVSPWTQRHFSTFGNLSTPAAIMGNPAVAKHGKTVMHGLDRAVQNLDDIKNTYATLSVMHSEKLHVDPDNFRLLADCITVCVAAKLGPAVFSADTQEAFQKFLAVVVSALGRQYH” here?
A: soluble

Q: Which “soluble on expression in E. coli” value does the source give for “MGSDKIHHHHHHMDRLQLLEYWLKALYPDQPCTLSPASADASFRRYFRASLPGKTLIVMDAPPQQEDCRPFLHAASIFSRASVHVPAIVAQDLNQGFLLLSDLGTTTYLQALTAAPENANRLYQDAIDALIKIQCASQKNIFPEYDRILLSRELELFPDWYMTRHLHAPPDDDQKNTLKTVFNLILANNLAQPQVFVHRDYHSRNLMVSTPNPGIIDFQDAVLGPITYDLVSLFKDAYIQWEEAQILDWMIRYWEKARHAGLPVATDFSIFYRDFEWMGVQRHLKVLGIFARLCYRDNKPTYLQDMPAIMQYLRQTCERYSELHPLSRLLDRLEDRQAETGYTF” here?
A: not soluble

Q: With “MAFRLAVDCLGFENHPREAIDAVLEYWSYHQELEFILVGDEKTFDGLDYLPKNITKQLASSCIDMTDTPLTARRKVNNSMQKAINLVRDGAADVVISAGSSAVYASLTYDGFGKIHKDVKSAFMSYVPTANNDWFYFLDVGANKNFTGKELYFLGLMADIFVKKTTNKISPRIALLNIGTEIHKGFDYHQEGYQLLNEDKHLNFTGFIEPRFLLDGVCDILVADGYSGNLVLKSMEGTFKTIARLLKQGYKRNPLAGLFSLGILKRIAKRFDYKNNAGAVVIGLNKLALKTHGSADKQQFLSTIRLAHTSLKSDLINAIKSSLDNYEK” as the sequence, how does the “soluble on expression in E. coli” value read?
A: soluble

Q: With “GSMTGKSVKDVDRYQAVLANLLLEEDNKFCADCQSKGPRWASWNIGVFICIRCAGIHRNLGVHISRVKSVNLDQWTQEQIQCMQEMGNGKANRLYEAYLPETFRRPQIDPAVEGFIRDKYEKKKYMDRSLDINA” as the sequence, how does the “soluble on expression in E. coli” value read?
A: soluble

Q: With “MHHHHHHSSGVDLGTENLYFQSNAMANPLYHKHIISINDLSRDELELVLRTAASLKKTPQPELLKHKVIASCFFEASTRTRLSFETSIHRLGASVVGFSDSSNTSLGKKGETLADTMSVISTYVDAIVMRHPQEGASRLAAQFSGNVPIVNAGDGANQHPTQTLLDLFTIQETQGRLDNINIAMVGDLKYGRTVHSLTQALAKFNGNHFFFIAPDALAMPAYILQMLEEKEIEYSLHESLEEVVPELDILYMTRVQKERLDPSEYANVKAQFILRSSDLTGARDNLKVLHPLPRIDEITTDVDKTPYAYYFQQAGNGIFARQALLALVLNAELAL” as the sequence, how does the “soluble on expression in E. coli” value read?
A: soluble

Q: With “MASNQIEGAVVGIRVNDGIAAAPVVLFTHEMPAVPERDFQSEQGEIERVKRAIGVVVQHLQEQAKQPKGEIFSAHSMMLSDPELWASVESRIQTGMIAEQAWIESLQTLADEFRQAESQYMREREADVHDIARQVMVEMTGVTPNAIDIQEPSILLARDLMPSDVAGLDKSKVLGICLSEGGKTSHSAILARAMGIPAMVKAQGCLDAVRAGQVVTIDGFRGHLWFSPSDAIQQELEAQQIEWQSTRQSALASAQQA” as the sequence, how does the “soluble on expression in E. coli” value read?
A: not soluble

Q: With “MAHHHHHHMENINRVNKYDNPNEAIKNMVDKIINKKEMMKYFLDAQDIFEYHDVGKKGEVDITLFPKMARQLKQVYDIRDINNFKKEMKIKKIYKMDLQLFFTLLKRKILYSINNSNNNENDNSSFRQHYDILDMKKKQLLDVDELRTYLGLMGDKINPDDFNILLRYNLINNHRINKDDIVLDENKEIKNISFNAYVDMLTCYKYI” as the sequence, how does the “soluble on expression in E. coli” value read?
A: not soluble

Q: With “MSLKQKSVPMRHGTIYLYGLHSVHAALKNPKRVFEHLYITPNALKRLNIPESDLPCPITLCLPKQLDSFVGNDAVHQGIVLETEPLKPCQLSELTNTDLVIVMDQITDPHNVGAIMRSAVAFKAEALITTYRHSPQESGVLAKAASGALEMIHYITVQNLAETLQELHKAGFISFGLDSEGNHPLETTLTGEKIALVLGAEGKGLRKKTRENVCALTRLDMPGNIKSLNVSNAATIALYAAHKYLRGEGHHHHHH” as the sequence, how does the “soluble on expression in E. coli” value read?
A: soluble

Q: Which “soluble on expression in E. coli” value does the source give for “MKLTKTLLTTALFGASIFSFQSTAWADTPEQQFQQGLTAYEQSDYQTAFKLWLPMAEQGYAQAQGGLGMMYERGLGVKQDDFKAVNWYRKAAEQGDADAQLNLGAMYAIGHGVKQDGVEAVKWFRKAAEQGNAKAQNGLGMMYRGRLGIKQDYFKAVKWYRKAAEQGYGGAQVMLGFSYLSGKGVQVNKSLAKEWFGKACDNGEQVGCEYYSKLNRGER” here?
A: not soluble

Q: Which “soluble on expression in E. coli” value does the source give for “MAGDPMANITLSTQHYRIHRSDVEPVKEKTTDKDVFAKSITAVRNSFISLSTSLSDRFSLHLQTDIPTTHFHRGSASEGRAVLTSKTVKDFMLQKLNSLDIKGNASKDPAYARQTCEAMLSAVYSNNKDHCCKLLISKGVSITPFLKEIGEAAQNAGLPGEIKNGVFTPGGAGANPFVVPLIAAASIKYPHMFINHNQQVSFKAYAEKIVMKEVTPLFNKGTMPTPQQFQLTIENIANKYLQNASLEHHHHHH” here?
A: not soluble

Q: With “MGSDKIHHHHHHMFKTIHPLSVARHGKLRLKPVSDYRFAAQEAVIGLVGAEIHKAIHAFPIAFLRSAHAGGTSCQMVGLLSVTPGQNLLVSPDGRWLGDYIPAALRAYPFVLARSQEDADTRLPCLDEDCGLLSESEGQPLFSEDGQLSDFSRRIIDFLTATERNREATQKGVDVLEKAQLFTPWSLQVVIQKQTKAIEGFHVIDETKLNQLDDETWLALRRAGVLPLVYGHLLSLNRTDLLGQLSGLQAQLAQQLTARPKLDDMLDFGDESILQF” as the sequence, how does the “soluble on expression in E. coli” value read?
A: not soluble

Q: Which “soluble on expression in E. coli” value does the source give for “MAHHHHHHMKQSKLVSRPSKTKKPKERKDRREDERYQREMDALIAREVARENVSMRSDTHKPQPKLLEEVQKDTSRRPKTPTSLSTAAVEKQAKIDKESGFQPVVNQRKERQQQQHQQQQTSAPKPMLVNEALERKLNHFFSNLNRKEKLTRLSQPEENPTASKGATIIVRKDIANARSWQQQQQ” here?
A: soluble

Q: For “MSLRKLGPVTIDPRRHDAVLFDTTLDATQELVRQLQEVGVGTGVFGSGLDVPIVAAGRLAVRPGRCVVVSAHSAGVTAARESGFALIIGVDRTGCRDALRRDGADTVVTDLSEVSVRTGDRRMSQLPDALQALGLADGLVARQPAVFFDFDGTLSDIVEDPDAAWLAPGALEALQKLAARCPIAVLSGRDLADVTQRVGLPGIWYAGSHGFELTAPDGTHHQNDAAAAAIPVLKQAAAELRQQLGPFPGVVVEHKRFGVAVHYRNAARDRVGEVAAAVRTAEQRHALRVTTGREVIELRPDVDWDKGKTLLWVLDHLPHSGSAPLVPIYLGDDITDEDAFDVVGPHGVPIVVRHTDDGDRATAALFALDSPARVAEFTDRLARQLREAPEGHHHHHH”, which “soluble on expression in E. coli” value is on record?
A: soluble

Q: For “MGSDKIHHHHHHMEQNRFKKETKTCSASWPRAPQSTLCATDRLELTYDVYTSAERQRRSRTATRLNLVFLHGSGMSKVVWEYYLPRLVAADAEGNYAIDKVLLIDQVNHGDSAVRNRGRLGTNFNWIDGARDVLKIATCELGSIDSHPALNVVIGHSMGGFQALACDVLQPNLFHLLILIEPVVITRKAIGAGRPGLPPDSPQIPENLYNSLRLKTCDHFANESEYVKYMRNGSFFTNAHSQILQNIIDFERTKASGDDEDGGPVRTKMEQAQNLLCYMNMQTFAPFLISNVKFVRKRTIHIVGARSNWCPPQNQLFLQKTLQNYHLDVIPGGSHLVNVEAPDLVIERINHHIHEFVLTSPLQSSHIPQLTLEERAVMFDRAFDSFKNEALVKTTKQKL”, which “soluble on expression in E. coli” value is on record?
A: not soluble

Q: Which “soluble on expression in E. coli” value does the source give for “MVLPPQNRLCNEVCLEAGQSPNSNELYLNSSELLKTELNNDINLCLVDFCERHNIDYRGMVNRLVTNNMYFFYIWGKYALSKA” here?
A: not soluble

Q: For “MIDHNIRTGKAFFGRRKGKRLRNSQLVLIKKLFPTLDINLNNSVPLNLTSLFSRKVKEVRLEIGFGGGEHLLHEMKHFPQTGFIGIEPFINGMAKMLMSLEEHKQYQNQLRLYNDDATGLLDWLPNASLDGIDLFYPDPWPKKKHWKRRFINMKNLNRFARVLKTGKKFRFASDIESYVNWTLYHCSNHHSFEWEAKNPKDWKTPYTLWSGTRYEAKALREGRAPTYLTFIKK”, which “soluble on expression in E. coli” value is on record?
A: not soluble

Q: Which “soluble on expression in E. coli” value does the source give for “SLEECVCENYKLAVNCFVNNNRQCQCTSVGAQNTVICSKLAAKCLVMKAEMNGSKLGRRAKPEGALQNNDGLYDPDCDESGLFKAKQCNGTSTCWCVNTAGVRRTDKDTEITCSERVRTYWIIIELKHKAREKPYDSKSLRTALQKEITTRYQLDPKFITSILYENNVITIDLVQNSSQKTQNDVDIADVAYYFEKDVKGESLFHSKKMDLTVNGEQLDLDPGQTLIYYVDEKAPEFSEG” here?
A: not soluble

Q: Which “soluble on expression in E. coli” value does the source give for “MGSDKIHHHHHHMRNKIEKGVDLNLRQFIKSLGYIAGGTALLASTPWLSSCTPEKLKEIRNEKARIALIGTGSRGQYHIHNLKEIPHARIVAVCDNYAPNLQQAVELCPGAKAYTDYRKLLESADIDGVIISTPLNWHAPIVLDALAAGKHVFCEKAMARTLDECKAIYDAYQTTNQVLYFCMQRMYDEKYIKGMQMIHSGLIGDVVGMRCHWFRNADWRRPVPSPELEHQINWRLYKESSGGLMTELACHQLEVCNWAAKRMPVSIIGMGDIVYWKDGREVYDSVNVTYRYSDGTKIAYESLISNKFNGMEDQILGHKGTMEMAKGIYYLEEDHSTSGIRQLIGQVKDKVFAAIPTAGPSWRPETKMEYTPHFVIEGDINVNNGLSMIGADKDGSDIILSSFCQSCITGEKAQNVVEEAYCSTVLCLLGNQAMEEERHILFPDEYKIPYMKF” here?
A: not soluble

Q: With “MATMTTKSHCTFNPDYYQDVWQRFGEEEYDVVVIGGGSVGAGAGLDAAIRGLKVAVVESRDFAAGTSSRSSKMFHGGLRYLAMLDFKLVAESLHERELNMSTLAPHLVKPLKFLFPLTHHVWERVMMFGGFTLYDLMGGAKSVPMQKHYSRKGTLAMAPGLKDDAVVGSVRYFDTLVDDARHTMTVLRTAGELGADVRPSTQVVGFEKDGQRVVGAILQDTDTGEQTTIRGKVFINATGVWNDHIEKLAGGNGPFSVHASKGVHIVVPKNVFDADAAMCFVTEKSVLFVIPWGEYWIIGTTDTDWDLNRADPAPTAADINYILDEVNQRVRRPIQHSDIVGVYSGLRPLLSGKSDTTTKLSRNHAVAKVMPGLVSVAGGKYTTYRVIGKDAVDLATEDLDFRVPASESERTPILGADGYHALQNQAPRIARTFGTTEDVVEHLLGRYGSLVHEVLEPSVDKPELLEPIPGAPGYIKAEAVYAVTHEGALHVEDIVERRLRAGIEYADRGVAAAPAIAELVADYLGWDAERTAAEVTAFTDRVSAEIAAEKELTDKAANEHIVAGSAVRSYVDVSGDNLEHHHHHH” as the sequence, how does the “soluble on expression in E. coli” value read?
A: soluble

Q: With “GPTSPGPALTDWARVREELASTGPPVVAMPVVIKTEGPAWTPLEPKLITRLADTVRTKGLRSPITMAEVEALMSSPLLPHDVTNLMRVILGPAPYALWMDAWGVQLQTVIAAATRDPRHPANGQGRGERTNLNRLKGLADGMVGNPQGQAALLRPGELVAITASALQAFREVARLA” as the sequence, how does the “soluble on expression in E. coli” value read?
A: soluble

Q: Which “soluble on expression in E. coli” value does the source give for “MSETELRKRQAQFTRELHGDDIGKKTGLSALMSKNNSAQKEAVQKYLRNWDGRTDKDAEERRLEDYNEATHSYYNVVTDFYEYGWGSSFHFSRFYKGESFAASIARHEHYLAYKAGIQRGDLVLDVGCGVGGPAREIARFTGCNVIGLNNNDYQIAKAKYYAKKYNLSDQMDFVKGDFMKMDFEENTFDKVYAIEATCHAPKLEGVYSEIYKVLKPGGTFAVYEWVMTDKYDENNPEHRKIAYEIELGDGIPKMFHVDVARKALKNCGFEVLVSEDLADNDDEIPWYYPLTGEWKYVQNLANLATFFRTSYLGRQFTTAMVTVMEKLGLAPEGSKEVTAALENAAVGLVAGGKSKLFTPMMLFVARKPENAETPSQTSQEATQ” here?
A: soluble

Q: With “IVVYTDREVYGAVGSQVTLHCSFWSSEWVSDDISFTWRYQPEGGRDAISIFHYAKGQPYIDEVGTFKERIQWVGDPSWKDGSIVIHNLDYSDNGTFTCDVKNPPDIVGKTSQVTLYVFEKVPTR” as the sequence, how does the “soluble on expression in E. coli” value read?
A: soluble
